Source: publication doi:10.1101/2023.07.20.548338

Molecular target: GLS1 (endogenous; both KGA and GAC, not told apart) (UniProt D3Z7P3)
Assay: IP of endogenous GLS1, PDZD8 blot
Conditions: reference: wild-type PDZD8, glucose-starved cells; sites T527

binding against the reference: weaker
Substance: PDZD8 (from UniProt Q8NEN9) PDZD8-T527A, glucose-starved cells
